Results as given in US20210246166A1 (Bayer, published 2021).
Bridge positions count the residues as written; N and C are the ends. Square brackets hold non-standard residues; d marks the D form. Ends that are not written are not given here. * marks the point of attachment. (Trifluoro)l/L = 5,5,5-trifluoro-DL-leucine; Pro(trans-4-F) = O=C(O)[C@@H]1C[C@@H](F)CN1; Oic = O=C(O)[C@@H]1C[C@@H]2CCCC[C@@H]2N1; Butanoyl(3,3-Me2) = CC(C)(C)CC(=O)*; Cyclobutylacetic = O=C(CC1CCC1)*; Hyp = O=C(O)[C@@H]1C[C@@H](O)CN1; NMeI = CC[C@H](C)[C@H](NC)C(=O)O; tBuAla = CC(C)(C)C[C@H](N)C(=O)O; Gly(cBu) = N[C@H](C(=O)O)C1CCC1; Pen = CC(C)(S)[C@H](N)C(=O)O; NMeC = CN[C@@H](CS)C(=O)O; Orn = NCCC[C@H](N)C(=O)O; Lac = C[C@H](O)C(=O)O; Ahx = NCCCCCC(=O)O; Sar = CNCC(=O)O

B1: Example 377: IC+SRSLP-(Oic)-I-(Pen)+IPQ-NH2 (peptide)
peptide: ICSRSLP[Oic]I[Pen]IPQ-NH2
modifications: disulfide 2-10; N-terminus assumed
SMILES: CC[C@H](C)[C@H](N)C(=O)N[C@H]1CSSC(C)(C)[C@@H](C(=O)N[C@H](C(=O)N2CCC[C@H]2C(=O)N[C@@H](CCC(N)=O)C(N)=O)[C@@H](C)CC)NC(=O)[C@H]([C@@H](C)CC)NC(=O)[C@@H]2C[C@@H]3CCCC[C@@H]3N2C(=O)[C@@H]2CCCN2C(=O)[C@H](CC(C)C)NC(=O)[C@H](CO)NC(=O)[C@H](CCCNC(=N)N)NC(=O)[C@H](CO)NC1=O
B2: Example 378: PPIC+SRS-((tBu)A)-PPI-(Pen)+IP-NH2 (peptide)
peptide: PPICSRS[tBuAla]PPI[Pen]IP-NH2
modifications: disulfide 4-12; N-terminus assumed
SMILES: CC[C@H](C)[C@H](NC(=O)[C@@H]1CCCN1C(=O)[C@@H]1CCCN1)C(=O)N[C@H]1CSSC(C)(C)[C@@H](C(=O)N[C@H](C(=O)N2CCC[C@H]2C(N)=O)[C@@H](C)CC)NC(=O)[C@H]([C@@H](C)CC)NC(=O)[C@@H]2CCCN2C(=O)[C@@H]2CCCN2C(=O)[C@H](CC(C)(C)C)NC(=O)[C@H](CO)NC(=O)[C@H](CCCNC(=N)N)NC(=O)[C@H](CO)NC1=O
B3: Example 379: ((N-Me)I)-C+SRS-((tBu)A)-PPI-(Pen)+IP-NH2 (peptide)
peptide: [NMeI]CSRS[tBuAla]PPI[Pen]IP-NH2
modifications: disulfide 2-10; N-terminus assumed
SMILES: CC[C@H](C)[C@H](NC)C(=O)N[C@H]1CSSC(C)(C)[C@@H](C(=O)N[C@H](C(=O)N2CCC[C@H]2C(N)=O)[C@@H](C)CC)NC(=O)[C@H]([C@@H](C)CC)NC(=O)[C@@H]2CCCN2C(=O)[C@@H]2CCCN2C(=O)[C@H](CC(C)(C)C)NC(=O)[C@H](CO)NC(=O)[C@H](CCCNC(=N)N)NC(=O)[C@H](CO)NC1=O
B4: Example 380: GIC+SRSL-(Hyp)-PIC+IPD-OH (peptide)
peptide: GICSRSL[Hyp]PICIPD-OH
modifications: disulfide 3-11; N-terminus assumed
SMILES: CC[C@H](C)[C@H](NC(=O)CN)C(=O)N[C@H]1CSSC[C@@H](C(=O)N[C@H](C(=O)N2CCC[C@H]2C(=O)N[C@@H](CC(=O)O)C(=O)O)[C@@H](C)CC)NC(=O)[C@H]([C@@H](C)CC)NC(=O)[C@@H]2CCCN2C(=O)[C@@H]2C[C@@H](O)CN2C(=O)[C@H](CC(C)C)NC(=O)[C@H](CO)NC(=O)[C@H](CCCNC(=N)N)NC(=O)[C@H](CO)NC1=O
B5: Example 381: ((N-Me)G)-(Orn)-(Orn)-(Orn)-IC+SRS-((tBu)A)-PPI-(Pen)+IP-NH2 (peptide)
peptide: [Sar][Orn][Orn][Orn]ICSRS[tBuAla]PPI[Pen]IP-NH2
modifications: disulfide 6-14; N-terminus assumed
SMILES: CC[C@H](C)[C@H](NC(=O)[C@H](CCCN)NC(=O)[C@H](CCCN)NC(=O)[C@H](CCCN)NC(=O)CNC)C(=O)N[C@H]1CSSC(C)(C)[C@@H](C(=O)N[C@H](C(=O)N2CCC[C@H]2C(N)=O)[C@@H](C)CC)NC(=O)[C@H]([C@@H](C)CC)NC(=O)[C@@H]2CCCN2C(=O)[C@@H]2CCCN2C(=O)[C@H](CC(C)(C)C)NC(=O)[C@H](CO)NC(=O)[C@H](CCCNC(=N)N)NC(=O)[C@H](CO)NC1=O
B6: Example 382: (Cyclobutylacetic)-IC+SRS-((tBu)A)-PPI-((N-Me)C)+I-NH2 (peptide)
peptide: Cyclobutylacetic-ICSRS[tBuAla]PPI[NMeC]I-NH2
modifications: disulfide 2-10
SMILES: CC[C@H](C)[C@H](NC(=O)[C@@H]1CSSC[C@H](NC(=O)[C@@H](NC(=O)CC2CCC2)[C@@H](C)CC)C(=O)N[C@@H](CO)C(=O)N[C@@H](CCCNC(=N)N)C(=O)N[C@@H](CO)C(=O)N[C@@H](CC(C)(C)C)C(=O)N2CCC[C@H]2C(=O)N2CCC[C@H]2C(=O)N[C@@H]([C@@H](C)CC)C(=O)N1C)C(N)=O
B7: Example 383: (Ahx)-IC+SRSLP-(Oic)-IC+I-OH (peptide)
peptide: [Ahx]ICSRSLP[Oic]ICI-OH
modifications: disulfide 3-11; N-terminus assumed
SMILES: CC[C@H](C)[C@H](NC(=O)[C@@H]1CSSC[C@H](NC(=O)[C@@H](NC(=O)CCCCCN)[C@@H](C)CC)C(=O)N[C@@H](CO)C(=O)N[C@@H](CCCNC(=N)N)C(=O)N[C@@H](CO)C(=O)N[C@@H](CC(C)C)C(=O)N2CCC[C@H]2C(=O)N2[C@@H](C[C@@H]3CCCC[C@@H]32)C(=O)N[C@@H]([C@@H](C)CC)C(=O)N1)C(=O)O
B8: Example 386: ((N-Me)G)-IC+SRSLPPIC+IpD-OH (peptide)
peptide: [Sar]ICSRSLPPICI[dP]D-OH
modifications: disulfide 3-11; N-terminus assumed
SMILES: CC[C@H](C)[C@H](NC(=O)CNC)C(=O)N[C@H]1CSSC[C@@H](C(=O)N[C@H](C(=O)N2CCC[C@@H]2C(=O)N[C@@H](CC(=O)O)C(=O)O)[C@@H](C)CC)NC(=O)[C@H]([C@@H](C)CC)NC(=O)[C@@H]2CCCN2C(=O)[C@@H]2CCCN2C(=O)[C@H](CC(C)C)NC(=O)[C@H](CO)NC(=O)[C@H](CCCNC(=N)N)NC(=O)[C@H](CO)NC1=O
B9: Example 387: (Lactic)-IC+SRS-((tBu)A)-PPIC+IPD-NH2 (peptide)
peptide: [Lac]ICSRS[tBuAla]PPICIPD-NH2
modifications: disulfide 3-11; N-terminus assumed
SMILES: CC[C@H](C)[C@H](NC(=O)[C@H](C)O)C(=O)N[C@H]1CSSC[C@@H](C(=O)N[C@H](C(=O)N2CCC[C@H]2C(=O)N[C@@H](CC(=O)O)C(N)=O)[C@@H](C)CC)NC(=O)[C@H]([C@@H](C)CC)NC(=O)[C@@H]2CCCN2C(=O)[C@@H]2CCCN2C(=O)[C@H](CC(C)(C)C)NC(=O)[C@H](CO)NC(=O)[C@H](CCCNC(=N)N)NC(=O)[C@H](CO)NC1=O
B10: Example 388: IC+SRSLP-(Oic)-I-(Pen)+IPQ-OH (peptide)
peptide: ICSRSLP[Oic]I[Pen]IPQ-OH
modifications: disulfide 2-10; N-terminus assumed
SMILES: CC[C@H](C)[C@H](N)C(=O)N[C@H]1CSSC(C)(C)[C@@H](C(=O)N[C@H](C(=O)N2CCC[C@H]2C(=O)N[C@@H](CCC(N)=O)C(=O)O)[C@@H](C)CC)NC(=O)[C@H]([C@@H](C)CC)NC(=O)[C@@H]2C[C@@H]3CCCC[C@@H]3N2C(=O)[C@@H]2CCCN2C(=O)[C@H](CC(C)C)NC(=O)[C@H](CO)NC(=O)[C@H](CCCNC(=N)N)NC(=O)[C@H](CO)NC1=O
B11: Example 389: AIC+SRSLPP-(Cyclobutylglycine)-C+IPD-NH2 (peptide)
peptide: AICSRSLPP[Gly(cBu)]CIPD-NH2
modifications: disulfide 3-11; N-terminus assumed
SMILES: CC[C@H](C)[C@H](NC(=O)[C@H](C)N)C(=O)N[C@H]1CSSC[C@@H](C(=O)N[C@H](C(=O)N2CCC[C@H]2C(=O)N[C@@H](CC(=O)O)C(N)=O)[C@@H](C)CC)NC(=O)[C@H](C2CCC2)NC(=O)[C@@H]2CCCN2C(=O)[C@@H]2CCCN2C(=O)[C@H](CC(C)C)NC(=O)[C@H](CO)NC(=O)[C@H](CCCNC(=N)N)NC(=O)[C@H](CO)NC1=O
B12: Example 390: ((N-Me)G)-IC+SRSLP-((trans-4-Fluoro)P)-IC+IPD-OH (peptide)
peptide: [Sar]ICSRSLP[Pro(trans-4-F)]ICIPD-OH
modifications: disulfide 3-11; N-terminus assumed
SMILES: CC[C@H](C)[C@H](NC(=O)CNC)C(=O)N[C@H]1CSSC[C@@H](C(=O)N[C@H](C(=O)N2CCC[C@H]2C(=O)N[C@@H](CC(=O)O)C(=O)O)[C@@H](C)CC)NC(=O)[C@H]([C@@H](C)CC)NC(=O)[C@@H]2C[C@@H](F)CN2C(=O)[C@@H]2CCCN2C(=O)[C@H](CC(C)C)NC(=O)[C@H](CO)NC(=O)[C@H](CCCNC(=N)N)NC(=O)[C@H](CO)NC1=O
B13: Example 396: (tert-Butylacetic acid)-IC+SRS-((tBu)A)-PPI-(Pen)+I-NH2 (peptide)
peptide: {Butanoyl(3,3-Me2)}-ICSRS[tBuAla]PPI[Pen]I-NH2
modifications: disulfide 2-10
SMILES: CC[C@H](C)[C@H](NC(=O)[C@H]1NC(=O)[C@H]([C@@H](C)CC)NC(=O)[C@@H]2CCCN2C(=O)[C@@H]2CCCN2C(=O)[C@H](CC(C)(C)C)NC(=O)[C@H](CO)NC(=O)[C@H](CCCNC(=N)N)NC(=O)[C@H](CO)NC(=O)[C@@H](NC(=O)[C@@H](NC(=O)CC(C)(C)C)[C@@H](C)CC)CSSC1(C)C)C(N)=O

Legend:
[1] = molecular target: T1, recombinant human MASP1 active protease (amino acids 297-699, C-terminal His Tag) (human, UniProt P48740 297-699); test: cell-based or functional assay
T1 sequence: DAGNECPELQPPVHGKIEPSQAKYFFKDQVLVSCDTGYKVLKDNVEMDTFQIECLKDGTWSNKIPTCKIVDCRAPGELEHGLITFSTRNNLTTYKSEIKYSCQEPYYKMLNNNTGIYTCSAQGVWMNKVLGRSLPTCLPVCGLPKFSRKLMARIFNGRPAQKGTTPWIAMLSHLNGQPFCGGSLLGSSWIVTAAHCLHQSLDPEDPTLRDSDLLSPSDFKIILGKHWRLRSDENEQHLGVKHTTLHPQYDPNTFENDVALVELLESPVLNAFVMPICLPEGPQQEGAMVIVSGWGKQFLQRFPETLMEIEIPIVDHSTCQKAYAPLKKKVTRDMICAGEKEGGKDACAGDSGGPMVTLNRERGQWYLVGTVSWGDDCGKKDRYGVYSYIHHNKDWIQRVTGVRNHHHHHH

[2] = molecular target: recombinant human MASP2 active protease (amino acids 297-686, C-terminal His Tag) (human, UniProt O00187 297-686); test: cell-based or functional assay
recombinant human MASP2 active protease (amino acids 297-686, C-terminal His Tag), sequence (O00187 other isoform, or with tags, fused parts or gaps limits assumed): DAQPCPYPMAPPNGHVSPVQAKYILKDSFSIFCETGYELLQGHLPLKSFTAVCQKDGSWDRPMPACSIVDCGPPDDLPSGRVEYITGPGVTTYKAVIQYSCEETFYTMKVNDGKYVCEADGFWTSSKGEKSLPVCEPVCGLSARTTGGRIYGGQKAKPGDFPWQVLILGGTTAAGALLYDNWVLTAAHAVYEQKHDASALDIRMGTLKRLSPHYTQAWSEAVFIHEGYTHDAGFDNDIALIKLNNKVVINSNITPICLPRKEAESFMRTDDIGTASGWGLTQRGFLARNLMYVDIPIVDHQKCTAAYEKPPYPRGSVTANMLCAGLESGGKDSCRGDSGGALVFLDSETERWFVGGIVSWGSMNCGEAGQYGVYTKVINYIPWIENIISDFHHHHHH

| Binder | human MASP1 IC50 [1] | human MASP2 IC50 [2] |
| --- | --- | --- |
| B1 | 37 nM | 810 nM |
| B2 | 38 nM | 1100 nM |
| B3 | 39 nM | 360 nM |
| B4 | 40 nM | 810 nM |
| B5 | 40 nM | 550 nM |
| B6 | 40 nM | 41 nM |
| B7 | 40 nM | 800 nM |
| GICSRS[(Trifluoro)l/L]PPICIPD-OH (disulfide 3-11) [Example 384: GIC+SRS-((Trifluoro)l/L)-PPIC+IPD-OH] | 42 nM | 260 nM |
| B8 | 43 nM | 750 nM |
| B9 | 44 nM | 2200 nM |
| B10 | 45 nM | 750 nM |
| B11 | 46 nM | 330 nM |
| B12 | 47 nM | 1300 nM |
| {2‑Hydroxyisobutyric}-ICSRS[tBuAla]PPICIPD-NH2 (disulfide 2-10) [Example 392: (2-Hydroxyisobutyric)-IC+SRS-((tBu)A)-PPIC+IPD-NH2] | 47 nM | 80 nM |
| {(2S,3S)‑2‑((3S)-2-oxopiperazin-1-yl)‑3‑methylpentanoic acid}-CSRSLPPICIAD-OH (disulfide 1-9) [Example 393: ((2S,3S)-2-[(3S)-2-oxopiperazin-1-yl]-3-methylpentanoic acid)-C+SRSLPPIC+IAD-OH] | 49 nM | 3800 nM |
| B13 | 53 nM | 28 nM |
| {(2S,3S)‑2‑(2-Oxopiperazin-1-yl)‑3‑methylpentanoic acid}-CSRSLPPICIPD-OH (disulfide 1-9) [Example 397: ((2S,3S)-2-[2-Oxopiperazin-1-yl]-3-methylpentanoic acid)-C+SRSLPPIC+IPD-OH] | 54 nM | 3800 nM |
